Series [1] concerns bee venom (BV) hypersensitive patients. The series can be described thus: Intradermal (ID) skin tests. In kind it is in vivo, human. The following applies: for immediate allergic reaction to intradermal injection: representative patient of peptide group (FIG. 5), 1 μg/ml each OPF, 0.01 μg/ml native PLA2. As for the experimental part: Skin testing: ID tests with BV, PLA2 and peptides were performed as described in Müller et al., Allergy 48(14):37-46, 1993. Concentrations tested ranged from 10^−3 μg/ml to 1 μg/ml (10-fold dilution series). […] The 0.1 μg/ml concentration was defined as the end-point concentration (EPC), as higher concentrations of BV and PLA2 may induce non specific toxic reactions. See Müller et al., J. Allergy Clin. Immunol. 96:395-402, 1995.

The test system of another series is IgE. The series can be described thus: In vitro IgE binding, dot blot analysis. On the set-up: species or system human. The following applies: 1 μg spotted; control and peptide groups; order: OPF90-134, then OPF1-60. How it is done: Immunoblotting and dot blot analysis: Anti-BV or -PLA2 immunoblots were processed as described in Kettner et al., Clin. Experiment. Allergy 29:394-401, 1999. For dot blot analysis, 1 μg of whole BV, PLA2, OPFs or human albumin was diluted ¼ in DMSO, spotted on PVDF membranes and dried for 30 min. at 37° C. After blocking in non-fat milk 5%, further steps were performed as described in Kettner et al., Clin. Experiment. Allergy 29:394-401 1999. Dot densities were analyzed by scanning densitometry using an Advanced American Biotechnology scanner, Fullerton, Calif.

Take “phospholipase A2 [native PLA2, reference compound]”: the ID tests entry in series [1] (day 0, all patients in OPF and control group) is given as “positive”. Further, in series [1], the “immediate allergic reaction to intradermal injection” value (“immediate allergic reaction” for short) is “positive”.

With “OPF47-99: PLA2 fragment amino acid sequence (53 aa), internal overlapping peptide fragment of Apis mellifera PLA2 (KHGLTNTASHTRLSCDCDDKFYDCLKNSADTISSYFVGKMYFNLIDTKCYKLE)”, the “IgE binding to the peptide (order among the three OPFs)” value with IgE is given as “undetectable”. Also, the “immediate allergic reaction” value in series [1] was “absence of immediate allergic reaction”.

For “OPF90-134: PLA2 fragment amino acid sequence (45 aa), C-terminal overlapping peptide fragment of Apis mellifera PLA2 (LIDTKCYKLEHPVTGCGERTEGRCLHYTVDKSKPKVYQWFDLRKY)”, the “IgE binding to the peptide (order among the three OPFs)” value in the series on IgE is on record as “higher level”. Further, the “immediate allergic reaction” value in series [1] is recorded as “absence of immediate allergic reaction”.

Regarding “OPF1-60: PLA2 fragment amino acid sequence (60 aa), N-terminal overlapping peptide fragment of Apis mellifera PLA2 (IIYPGTLWCGHGNKSSGPNELGRFKHTDACCRTHDMCPDVMSAGESKHGLTNTASHTRLS)”, in series [1], the “immediate allergic reaction” value is listed as “absence of immediate allergic reaction”.

For the origin of these results see patent US9808503B2, “Allergen peptide fragments and use thereof for treatment of birch pollen allergies” (ANERGIS S.A., priority 2003, dated 2017).
